Target: the molecule itself
Assay: AUC

B1: His6-Dma1(187–end) (domain or fragment, S. pombe, UniProt Q10322 187-267, looked up)
chain: SGPPECCICLMPVLPCQALFVAPCSHSYHYKCIRPTLNESHPYFSCFICRKYHDLEAPVEEGDESLNDLLRNATVKDDASE
stoichiometry N: 2
